From US20250197490A1 (HBM ALPHA THERAPEUTICS, published 2025)
Where a chain is given by its changes, count along the chain named.

Assays:
biotinylated CRH [1] = molecular target: T1, biotinylated CRH (human and mouse, UniProt P01143 145-185 (rat entry), not fully specified; biotin; which end is not stated for the result (NT-biotin and CT-biotin forms were used)); test: ELISA, CRH (NT biotin)
T1 construct: also called biotin-CRH; CRH (NT biotin)
T1 peptide: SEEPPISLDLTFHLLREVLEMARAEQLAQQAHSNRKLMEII
Method: (§1) Streptavidin (Thermo, Cat: 21125) was diluted in PBS to a concentration of 2 μg/ml. 100 μl of diluted streptavidin was added per well to ELISA microplates, and the plates were incubated overnight at 4° C. […] Subsequently, plates were washed and incubated with HRP-conjugated goat anti-human IgG (H+L) antibody (Jackson, Cat: 109-035-088) at 37° C. for 1 hour. 100 μL of 3,3′,5,5′-tetramethylbenzidine (TMB) substrate (Biopanda, Cat: TMB-S-003) was added, and the plates were incubated at room temperature for 15 minutes. 100 μL of ELISA stopping solution (Solarbio, Cat #: C1058) was added to terminate the reaction, and the optical density at 450 nm (OD450 nm) was determined by an ELISA plate reader (Molecular Devices, Spectra max 384 plus).
These potential PTMs were mutated individually either in HCDR2 alone, in LCDR1 alone, or in various combinations of mutations, as detailed in Table 3. […] Most ΔPTM variants retained functional activities.

[2] = molecular target: T2, corticotropin-releasing hormone (CRH) peptide (human and mouse, UniProt P01143 145-185 (rat entry), not fully specified); test: cell-based or functional assay
T2 peptide: T1 peptide

biotinylated CRH [3] = molecular target: T1, biotinylated CRH; test: CRH ELISA, compared with PR006669
Method: as §1

[4] = molecular target: T3, N-Terminal CRH peptide (N-terminal region plus central region, CT biotin) (human and mouse, C-terminal K-Biotin); test: ELISA, N-Ter-CRH (CT-biotin) on streptavidin
T3 construct: also called N-Ter-CRH
T3 peptide: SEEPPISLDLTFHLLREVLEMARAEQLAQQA
Method: as §1

[5] = molecular target: T4, human UCN1 peptide, biotinylated (human, UniProt P55089 83-122, biotin at N- or C-terminus); test: ELISA, hUCN1 (NT biotin) and (CT biotin), mAb at 100 and 10 nM
T4 construct: also called hUCN1 (NT Biotin); hUCN1 (CT Biotin)
T4 peptide (looked up): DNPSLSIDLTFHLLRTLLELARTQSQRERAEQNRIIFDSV
Method: (§2) Streptavidin (Thermo, Cat: 21125) was diluted in PBS with a concentration of 2 μg/mL. 100 μL of diluted streptavidin was added per well to ELISA microplates, and the plates were incubated overnight at 4° C. Plates were blocked with ELISA blocking solution (containing 2% w/v BSA, 0.05% (v/v) Tween-20, pH 7.4 PBS buffer) at 37° C. for 1 hour, and then incubated with either 1 μg/mL hUCN1 (NT Biotin), hUCN1 (CT Biotin), hUCN2 (NT Biotin), hUCN2 (CT Biotin), hUCN3 (NT Biotin), or hUCN3 (CT Biotin) for 1 hour at 37° C. […] Plates were subsequently washed and incubated with HRP-conjugated goat anti-human IgG (H+L) antibody (Jackson, Cat: 109-035-088) at 37° C. for 1 hour. 100 μl of TMB Substrate (Biopanda, Cat: TMB-S-003) was added, and the plates were incubated at room temperature for 15 minutes. 100 μL of ELISA stopping solution (Solarbio, Cat #: C1058) was then added to terminate the reaction, and the OD450 nm was determined by an ELISA plate reader (Molecular Devices, Spectra max 384 plus).

[6] = molecular target: T2, corticotropin-releasing hormone (CRH) …; test: cell-based or functional assay
[7] = molecular target: T5, CRH (Central Region, CT Biotin) (C-terminal K-Biotin); test: ELISA, CRH central region peptide (CT biotin)
T5 construct: also called Central CRH
T5 peptide: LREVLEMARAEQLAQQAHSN
Method: as §1

[8] = molecular target: T6, CRH (C-Terminal Region, NT Biotin) (N-terminal Biotin-K; C-terminal NH2); test: ELISA, CRH C-terminal region peptide (NT biotin)
T6 construct: central region plus C-terminal region of CRH; also called C-Terminal CRH; C-Ter-CRH
T6 peptide: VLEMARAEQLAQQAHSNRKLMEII
Method: as §1

biotinylated CRH [9] = molecular target: T1, biotinylated CRH; test: Octet in-tandem competition on captured CRH; row = 1st mAb; competitor (2nd mAb) PR302341-34
Method: (§3) SA sensors (Fortebio, Cat #18-5019) were hydrated in running buffer for 10 mins.

biotinylated CRH [10] = molecular target: T1, biotinylated CRH; test: ELISA, CRH (NT biotin)
Method: as §1

biotinylated CRH [11] = molecular target: T1, biotinylated CRH; test: ELISA, CRH (CT biotin)
Method: as §1

[12] = molecular target: T7, CRH (Central Region, NT Biotin) (N-terminal Biotin-K; C-terminal NH2); test: ELISA, CRH central region peptide (NT biotin)
T7 construct: also called Central CRH
T7 peptide: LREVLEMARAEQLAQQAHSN
Method: as §1

[13] = molecular target: T8, human UCN2 peptide, biotinylated (human, UniProt Q96RP3 72-109, limits assumed, biotin at N- or C-terminus); test: ELISA, hUCN2 (NT biotin) and (CT biotin)
T8 construct: also called hUCN2 (NT Biotin); hUCN2 (CT Biotin)
T8 peptide (looked up): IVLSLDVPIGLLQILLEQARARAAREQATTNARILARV
Method: as §2

[14] = molecular target: T9, human UCN3 peptide, biotinylated (human, UniProt Q969E3 120-157, biotin at N- or C-terminus); test: ELISA, hUCN3 (NT biotin) and (CT biotin)
T9 construct: also called hUCN3 (NT Biotin); hUCN3 (CT Biotin)
T9 peptide (looked up): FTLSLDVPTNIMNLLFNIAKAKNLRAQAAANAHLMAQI
Method: as §2

biotinylated CRH [15] = molecular target: T1, biotinylated CRH; test: ELISA, CRH (NT biotin)
biotinylated CRH [16] = molecular target: T1, biotinylated CRH; test: ELISA, CRH (NT biotin)
biotinylated CRH [17] = molecular target: T1, biotinylated CRH; test: ELISA, CRH (CT biotin)
[18] = molecular target: T4, human UCN1 peptide, biotinylated; test: ELISA, hUCN1 (NT biotin)
Method: as §1

biotinylated CRH [19] = molecular target: T1, biotinylated CRH; test: Octet in-tandem competition on captured CRH; row = 1st mAb; competitor (2nd mAb) PR006669
Method: as §3

[20] = molecular target: T4, human UCN1 peptide, biotinylated; test: ELISA, hUCN1 (CT biotin)
Method: as §1

biotinylated CRH [21] = molecular target: T1, biotinylated CRH; test: ELISA, CRH (CT biotin)

B1: PR005656 (antibody, human IgG1, kappa, V domains shown)
VH: EVQLVESGGVLVQPGGSLRLSCAASGFTFSSYWMTWVRQAPGKGLEWVANIKQEGSEKYYVDSVKGRFTISRDNAKNSLFLQMNSLRAEDTAVYYCARTLIFDYWGQGTLVTVSS
VL: DIVMTQSPLSLPVTPGEPASISCRSSQSLLHSTGYNSLEWYLQKPGQSPQLLIYLGSNRASGVPDRFSGSGSGTDFTLKISRVEAEDVGIYYCMQTLQTPITFGQGTRLEIKR
EC50 (read off the curve) (biotinylated CRH [1]): ~0.03 nM
IC50 (read off the curve), CRH-induced mCRHR1 luciferase reporter [2]: ~4 nM

B2: PR006745 (antibody, human IgG1, kappa, V domains shown)
VH: EVQLVESGGGLVQPGGSLRLSCAASGFTFSDNWMSWVRQAPGKGLEWVANIKQDASENYYVDSVKGRFTISRDNAKNSLYLQMNSLRAEDTAVYYCSRGLALWGWGQGTLVTVSS
VL: B1 VL with Q6H, E17D, S37Y, E39D, I80F, S81I, I90V, T96A, I101Y, R108K
binding result (biotinylated CRH [3]): binds

B3: PR005660 (antibody, human IgG1, kappa, V domains shown)
VH: B1 VH
VL: B1 VL with N36Q
EC50 [4]: 0.076 nM
EC50 (read off the curve) (biotinylated CRH [1]): ~0.03 nM
binding result [5]: binds
IC50 in the hCRHR1 reporter assay [6]: ~10 nM
binding result [7]: no binding (tested: 100 nM)
binding result [8]: no binding (tested: 100 nM)
% Inhibition (biotinylated CRH [9]): 90%
EC50 (read off the curve) (biotinylated CRH [10]): ~0.03 nM
EC50 (read off the curve) (biotinylated CRH [11]): ~0.05 nM
binding result [12]: no binding (tested: 100 nM)
binding result [13]: no binding (tested: 100 nM)
binding result [14]: no binding (tested: 100 nM)

B4: PR301788 (antibody, human IgG1, kappa, V domains shown)
VH: EMKLEESGGGLVQPGGSMKLSCVASGFTFSNYWMNWVRQSPEKGLEWVAEIRLKSNNYATHYAESVKGRFTISRDDSKSSVYLQMNNLRAEDTGIYYCTIGTLVYWGQGTLVTVSA
VL: DIVLTQSPASLAVSLGQRATISCRASQSVSTSTYNYMHWFQQKPGQPPKLLIKFASNLESGVPARFSGSGSGTDFTLNIHPVEEEDTATFYCQHSWEIPYTFGGGTKLEIKR
binding result (biotinylated CRH [15]): binds

B5: PR301306 (antibody, human IgG1, kappa, V domains shown)
VH: B4 VH with M2V, H61L, I100R
VL: B4 VL with T33D, F40Y, F54Y, F90Y
EC50 (read off the curve) (biotinylated CRH [16]): ~0.1 nM
EC50 (read off the curve) (biotinylated CRH [17]): ~0.04 nM

B6: PR301806 (antibody, human IgG1, kappa, V domains shown)
VH: QVQLQQPGAELVKPGTSVKMSCKASGYTFTSYWMHWVKQRPGQGLEWIGDIYPGSDSTNYNEKFKSKASLTVDTSSSTAYMQLSSLTSEDSAVYYCARSITTTTFWYFDVWGAGTTVTVSS
VL: DVLMTQTPLSLPVSLGDQASISCRSSQSFVYSNGNTYLQWYLQKPGQSPKLLIYKVSNRFSGVPDRFSGSGSGTDFTLKISRVEAEDLGVYYCFQGSHVPPTFGAGTKLELKR
binding result (biotinylated CRH [15]): binds

B7: PR303394 (antibody, human IgG1, kappa, V domains shown)
VH: EVQLQQSGPELVKPGVSMKISCKASGYSFTDSTMNWVKQSHGKNLEWIGLIHPDNGGTIYNQKFKGKATLTVHKSSSTAYMELLSLTSEDSAVYYCANGFAYWGQGTLVTVSA
VL: DVVMTQTPLSLPVSLGDQASISCRSSQSLLHSNGNTYLHWYLQKPGQSPELLIYKVSNRFSGVPDRFSGSGSGTDFTLKISRVEAEDLGVYFCSQSTHVPLTFGAGTKLELKR
notes: also called analog of CTRND05
EC50 (read off the curve) [18]: ~0.02 nM
EC50 (read off the curve) (biotinylated CRH [10]): ~0.03 nM
% Inhibition (biotinylated CRH [19]): 90%
EC50 (read off the curve) (biotinylated CRH [11]): ~0.03 nM
EC50 (read off the curve) [20]: ~0.02 nM
binding result [13]: no binding (tested: 100 nM)
binding result [14]: no binding (tested: 100 nM)

B8: PR301612 (antibody, human IgG1, kappa, V domains shown)
VH: EVKLEESGGGLVQPGGSIKLSCVASGFTFSGAWMAWVRQSPEKGLEWVAEIKNKANNHATFYAESVKGRFIISRDDSKSSVYLQMNSLRAEDTGTYYCTLPDVWGTGTTVTVSS
VL: QIVLTQSPAIMSASPGERVTISCSASSSVSNMYWYLQKPGSSPKPWIYRTSNLASGVPARFSGSGSGTSYSLTISSMEAEDVATYYCQQYHSFPRTFGGGTKLEIKR
EC50 (read off the curve) (biotinylated CRH [21]): ~0.03 nM
